2 molecules from patent publication US20110274702A1 can be followed below.

In test [1] the target is H7N7 A/Netherlands/219/03 HA protein (influenza A virus H7N7 A/Netherlands/219/03). Kind of test: ELISA on HA. A general note: ELISA stands for enzyme-linked immunosorbent assay.
For test [2] the target is unchanged. Kind of test: ELISA on coated HA.

B1: FI28 variant 1 (antibody, V domains shown)
VH: EVQLVESGGGAVQPGESLKLSCAASGFTFSNYGMHWVRQAPGKGLEWVAVISYDGSNKYYADSVKGRFTISRDNSKDTLYLQMNSLRAEDTALFYCAKERPLRLLRYFDWLSGGANDYWGQGTLVTVSS
VL: DIVMTQSPDSLAVSLGERATINCKSSQSVLYSSNNKNYLAWYQQKPGQPPKLLIDWASTRESGVPDRFSGSGSGTDFTLTISNLQVEDVAVYYCQQYYRSPSFGQGTKLEIK
In the case of B1, the Binding to HA by ELISA (% of subtype specific control antibodies) in test [1] is -0.5%.

B2: FI6 variant 2 (antibody, V domains shown)
VH: QVQLVQSGGGVVQPGRSLRLSCVASGFTFSTYAMHWVRQAPGRGLEWVAVISYDGNYKYYADSVKGRFSISRDNSNNTLHLEMNTLRTEDTALYYCAKDSQLRSLLYFEWLSQGYFDPWGQGTLVTVTS
VL: DIQMTQSPDSLAVSLGARATINCKSSQSVTFNYKNYLAWYQQKPGQPPKVLIYWASARESGVPDRFSGSGSGTDFTLTISSLQAEDVAVYYCQQHYRTPPTFGQGTKVEIK
Take B2: the Binding to HA by ELISA (% of subtype specific control antibodies) in test [1] came to 87.9%. Further, the EC50 (as a rule, the concentration that produces a half-maximal response) in test [2] was 0.026 µg/mL.
